Drawing on article PMC4552884, this text covers decrease in signal of the precursor PfHsp60 spot in the PfHsp60 immunoprecipitate of 35S-labelled parasites treated with 5 uM Geldanamycin against DMSO (2DGE, phosphorimaging) for one substance.

In this experiment the target is PfHsp90 (Plasmodium falciparum (endogenous in strain 3D7)) (UniProt Q8IC05).

With precursor PfHsp60 (natural protein), the decrease in signal of the precursor PfHsp60 spot in the PfHsp60 immunoprecipitate of 35S-labelled parasites treated with 5 uM Geldanamycin against DMSO (2DGE, phosphorimaging) turned out to be 80%.
